Reference: US20250376498A1, “FUSION PROTEINS COMPRISING AN IMPROVED GLP-1 RECEPTOR AGONIST AND USES THEREOF” (Guangzhou Innogen Pharmaceutical Group Co., Ltd., priority 2022, published 2025)
“And” between values parts separate entries of the source, which are not always exact repeats. Equal entries are not always repeated.

Experiments:
Type in all cases: in vivo
DIO mice = assay: High-fat diet-induced obese (DIO) mice
Procedure: The effects of multiple administrations of YN-011 on glucose tolerance, insulin sensitivity, metabolism, and weight reduction were evaluated in high-fat diet (HFD)-induced obese mice. Male C57BL/6 mice, 5 months old (obtained from commercial sources such as Shanghai Slake Experimental Animals Co., Ltd., under standard housing conditions), were fed with an HFD (60% of total calories from fat, 20% from carbohydrates) for 6 months to establish the diet-induced obesity (DIO) mouse model. The DIO mice (weighing >50 g) were then divided into two groups (5 animals per group), with the experimental group receiving subcutaneous injections of 0.3 mg/kg of YN-011 twice a week (BIW) and the control group receiving phosphate-buffered saline (PBS) injections. The treatment was administered for 4 weeks.

NASH Rhesus monkeys [1] = assay: NASH Rhesus monkeys, liver biopsy histology (NAS and fibrosis scores); set-up: key to Fibrosis score: 0: No fibrosis observed; 1a: Mild perisinus fibrosis in zone 3; 1b: Moderate sinus fibrosis in zone 3; 1c: Periportal fibrosis; 2: Perisinus and periportal fibrosis; 3: Bridging fibrosis; 4: Cirrhosis; key to NAS Score: NAFLD activity score (NAS) from steatosis, inflammation, ballooning grades; details: for Fibrosis score / NAS Score / Steatosis score: individual animals
Procedure: Amount of specimens collected: ≤2 needles, each needle with a specimen length≤1.5 cm, and the total cumulative specimen length≤3 cm.
Approximately 2 cm of the collected tissue was immediately placed in 4% buffered formalin at room temperature and fixed for at least 24 hours. After appropriate modifications, dehydration, embedding, sectioning, HE staining, and Masson staining were performed.
Tissue sections were stained with H&E and Masson stains. Pathological slides were evaluated by a pathologist according to the diagnostic and treatment guidelines for non-alcoholic fatty liver disease (NAFLD) jointly drafted by the American Association for the Study of Liver Diseases (AASLD), the American College of Gastroenterology (ACG), and the American Gastroenterological Association (AGA). The diagnostic criteria can be found in Table 2 and Table 3.
After adequate fixation of the liver biopsy specimens, they were dehydrated, infiltrated with paraffin, embedded, and sectioned (5 μm) directly.
Routine deparaffinization of the sections was performed. The sections were sequentially immersed in 100% ethanol I, 100% ethanol II, 95%, 85%, and 75% ethanol for 3 minutes each. They were then rinsed with tap water for 3 minutes, stained with hematoxylin-eosin (HE) staining solution for 12 minutes, rinsed with tap water for 5 minutes, and stained with eosin Y solution (aqueous) for 3 minutes. Dehydration was carried out rapidly with 95% ethanol, followed by two rounds of dehydration with absolute ethanol for 2-5 minutes each. The sections were then cleared with xylene twice for 10 minutes each. Neutral mounting medium was applied, and microscopic examination was performed.
Routine deparaffinization of the sections was performed. The sections were stained with Weigert's iron hematoxylin for 5-7 minutes, and simultaneously, weak acid working solution was prepared by mixing distilled water and weak acid solution in a ratio of 2:1. The sections were rinsed with weak acid working solution for 1 minute. After rinsing with phosphomolybdic acid solution for 1-2 minutes, the sections were directly placed in aniline blue staining solution for 1-2 minutes, followed by rinsing with the prepared weak acid working solution for 1 minute. Dehydration was carried out rapidly with 95% ethanol, followed by two rounds of dehydration with absolute ethanol for 2-5 minutes each. The sections were then cleared with xylene twice for 10 minutes each. Neutral mounting medium was applied, and microscopic examination was performed.
The sections were observed under a microscope (with a digital imaging system), and pathological diagnosis and photography were performed. Based on the histopathological diagnosis, the HE and Masson results were scored according to the scoring criteria for non-alcoholic fatty liver disease activity score (NAS, Table 8) and liver fibrosis staging (Table 9).
(§1) Fifteen Rhesus monkeys were divided into 3 groups, with 5 monkeys in each group. They received subcutaneous injections of 0 (solvent control, placebo control group), 0.050, or 0.150 mg/kg of YN-011 once a week for 13 weeks (QW). The 0.150 mg/kg YN-011 group received adaptive dosing (0.1 mg/kg for the first dose, followed by 0.150 mg/kg for the remaining 12 doses).
To investigate whether YN-011 treatment led to histological improvements in the liver, liver biopsy specimens were collected from all Rhesus monkeys before the first injection and on day 89 after the first injection. Liver slices were stained with HE and Masson stains for histological analysis. The degrees of steatosis, inflammation, hepatocyte ballooning, and fibrosis were scored according to the standards for NAFLD activity and NASH progression.

NASH Rhesus monkeys [2] = assay: NASH Rhesus monkeys, body weight, lipids, glucose, food consumption, tolerability
Procedure: The in vivo pharmacological study of YN-011 was conducted in NASH Rhesus monkeys. The evaluated clinical parameters included liver lipid content assessed by MRI-PDFF %, NAFLD Activity Score (NAS), liver fibrosis stage assessed by liver histology, body weight, body mass index (BMI), blood lipid profile, fructose metabolism, other biochemical parameters, and food consumption.
The selected Rhesus monkeys were 11-23 years old, which corresponds to 30-70 years in humans. All Rhesus monkeys were males, with weights ranging from 13.63 to 22.85 kg. They had abnormal lipid metabolism for more than 2 years, MRI-PDFF % ranging from 7.8% to 11.9%, NAS scores of 3 or higher, and fibrosis scores of 0-1c within 6 months. These animals clinically met the definition of NASH.
as §1

[3] = 0.3 mg/kg sc BIW, 4 weeks, P<0.001
[4] = 50 μg/kg group, Day 89 post-injection
[5] = 150 μg/kg group, Day 89 post-injection

B1: YN-011: GLP-1 fusion protein of SEQ ID NO: 7: GLP-1 (A8G, G22E, R36G), linker peptide and IgG2/Fc domain (C222S, A330S, P331S) (protein)
chain: HGEGTFTSDVSSYLEEQAAKEFIAWLVKGGGSSGAPPPSGGGGSERKSCVECPPCPAPPVAGPSVFLFPPKPKDTLMISRTPEVTCVVVDVSHEDPEVQFNWYVDGVEVHNAKTKPREEQFNSTFRVVSVLTVVHQDWLNGKEYKCKVSNKGLPSSIEKTISKTKGQPREPQVYTLPPSREEMTKNQVSLTCLVKGFYPSDIAVEWESNGQPENNYKTTPPMLDSDGSFFLYSKLTVDKSRWQQGNVFSCSVMHEALHNHYTQKSLSLSPG
- UcP1 expression in BAT and epididymal WAT (DIO mice): no effect
- Ucp1 expression in inguinal WAT (DIO mice): significantly upregulated
- body weight (DIO mice; 0.3 mg/kg sc BIW, 4 weeks): significantly reduced
- ectopic lipid accumulation and hepatic triglycerides (DIO mice; 0.3 mg/kg sc BIW, 4 weeks): significantly reduced
- weight of other tissues (BAT, inguinal WAT, pancreas, calf muscle) (DIO mice; 0.3 mg/kg sc BIW, 4 weeks): no impact
- AST levels (DIO mice; 0.3 mg/kg sc BIW, 4 weeks, Ctrl 145.6±16.8, P<0.05): 72.20±19.29
- serum ALT levels (DIO mice; 0.3 mg/kg sc BIW, 4 weeks, Ctrl 153.4±18.7, P<0.01): 34.2±7.7
- reduction in non-esterified fatty acids (NEFA) (DIO mice; [3]): 57%
- reduction in total cholesterol (TC) (DIO mice; [3]): 30%
- reduction in triglycerides (TG) (DIO mice; [3]): 68%
- visceral fat, particularly epididymal fat content (DIO mice; 0.3 mg/kg sc BIW, 4 weeks, vs PBS control): significant decrease
- blood glucose (DIO mice; after 4 weeks of treatment, glucose fluctuation / IPGTT, P<0.01): significantly reduced
- insulin sensitivity (DIO mice; after 4 weeks of treatment, insulin tolerance, P<0.01): improved insulin sensitivity
- core body temperature (DIO mice; at room temperature): higher core body temperature
- VO2, VCO2 and EE normalized to body weight (DIO mice; during the night): significantly increased
- food consumption (DIO mice; multiple administrations vs control): significant decrease
- metabolic rate (VO2 and VCO2) and energy expenditure (EE) (DIO mice; not normalized, without statistical significance): increasing trend
- Fibrosis score (NASH Rhesus monkeys [1]; 50 μg/kg group, Baseline): 1a (2×) and 1c (2×) and 0-1a
- NAS Score (NASH Rhesus monkeys [1]; 50 μg/kg group, Baseline): 3 (2×) and 4 (3×)
- Steatosis score (NASH Rhesus monkeys [1]; 50 μg/kg group, Baseline): 1 (5%~33%) (4×) and 2 (34%~66%)
- Fibrosis score (NASH Rhesus monkeys [1]; [4]): 1a (2×) and 0~1a (3×)
- NAS Score (NASH Rhesus monkeys [1]; [4]): 2 (3×) and 1 (2×)
- Steatosis score (NASH Rhesus monkeys [1]; [4]): 0 (<5%) (4×) and 1 (5%~33%)
- Fibrosis score (NASH Rhesus monkeys [1]; 150 μg/kg group, Baseline): 1a (2×) and 1b (2×) and 0~1a
- NAS Score (NASH Rhesus monkeys [1]; 150 μg/kg group, Baseline): 3 (2×) and 4 (3×)
- Steatosis score (NASH Rhesus monkeys [1]; 150 μg/kg group, Baseline): 2 (34%~66%) (4×) and 3 (>66%)
- Fibrosis score (NASH Rhesus monkeys [1]; [5]): 1a (2×) and 1b and 0~1a (2×)
- NAS Score (NASH Rhesus monkeys [1]; [5]): 1 (3×) and 2 (2×)
- Steatosis score (NASH Rhesus monkeys [1]; [5]): 1 (5%~33%) (3×) and 0 (<5%) (2×)
- NAS and liver fibrosis scores (liver biopsy) (NASH Rhesus monkeys [1]; NASH Rhesus monkeys treated with YN-011): reduction in both NAS and liver fibrosis scores
- food consumption (NASH Rhesus monkeys [2]): dose-dependent reduction
- high-density lipoprotein cholesterol (HDL-c) compared to baseline (NASH Rhesus monkeys [2]): decreasing trend
- plasma fasting plasma glucose (FPG) levels, YN-011 vs placebo (NASH Rhesus monkeys [2]): no significant differences
- reduction of plasma fructosamine (FRA) (NASH Rhesus monkeys [2]; 150 μg/kg, after 12 weeks of treatment): 4.3%
- adverse reactions (NASH Rhesus monkeys [2]; 0.050 or 0.150 mg/kg sc QW, 13 weeks): No significant adverse reactions
- body weight and BMI compared to baseline (NASH Rhesus monkeys [2]; Day 7-Day 84): significant decrease
- serum LDL-c, total cholesterol (TC) and total triglycerides (TG) (NASH Rhesus monkeys [2]; various time points during treatment): significantly reduced
